The values that follow come from the supplement of paper PMC6379048.

Series [1] concerns the target T1, HNRNPF (UniProt P52597).
T1 sequence: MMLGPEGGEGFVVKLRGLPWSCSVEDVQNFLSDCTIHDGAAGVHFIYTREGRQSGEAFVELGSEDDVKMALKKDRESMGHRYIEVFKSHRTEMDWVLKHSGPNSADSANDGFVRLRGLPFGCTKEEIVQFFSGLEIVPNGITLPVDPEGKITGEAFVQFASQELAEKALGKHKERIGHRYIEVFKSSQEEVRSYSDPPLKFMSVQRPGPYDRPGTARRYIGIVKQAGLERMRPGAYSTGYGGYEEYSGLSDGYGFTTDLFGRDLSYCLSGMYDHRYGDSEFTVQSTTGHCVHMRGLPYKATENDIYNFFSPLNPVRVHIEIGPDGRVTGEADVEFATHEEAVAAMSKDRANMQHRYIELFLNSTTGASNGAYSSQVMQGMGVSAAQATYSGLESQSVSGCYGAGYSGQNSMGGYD
Nature of the series: EC50 of free RNA motif oligo competing protein binding to immobilised probe. An outline of the steps:
(§1)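 Kd was calculated as EC50, taken from a four-parameter log-logistic fit, multiplied by a protein-dependent depletion factor. The assay used HEK293-FT lysate (2.5 mg protein/well) pre-incubated for 1 h at 4°C with free RNA oligos (0 nM to 30 μM), then incubated for 30 min at 4°C with the matching oligos bound through a 5′-amino-C6 linker to NHS-Sepharose beads. Bound proteins were measured by label-free LC-MS/MS and normalised to the control.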

The target in series [2] is MRPL12 (UniProt P52815). The description is as above. In outline: as §1

Consider AAUAAA, for which the EC50 in series [1] was 6.12 µM.
For the sequence CUGUCCU, the EC50 in series [2] was found to be 0.115 µM.

For orientation: EC50 means the midpoint of the concentration-response curve.
